Experimental data published in the supplement of paper PMC9112550, “Optimization of the antimicrobial peptide Bac7 by deep mutational scanning” (BMC Biology, 2022).
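Further: peptides expressed intracellularly from a pBAD plasmid library in pooled LB shake-flask culture, induced with 0.3% L-arabinose, DNA abundance read by NGS, three biological replicates, DESeq2 with apeglm shrinkage.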

What follows are sequences tested on Escherichia coli TOP10 (assay: shrunken log2 fold change of peptide-encoding DNA abundance (4.5 h post-induction vs induction); higher = less antimicrobial activity (less host growth inhibition)). Conditions: time post-induction: 4.5 h; library: site-saturation at positions 5, 18, 19, 20.
In the case of RRIRDRPPRLPRPRPRPMGLPRP, the “shrunken log2 fold change” value is reported as -0.00663. RRIRNRPPRLPRPRPRPIHDPRP was tested, and the “shrunken log2 fold change” value was 0.177. For RRIRQRPPRLPRPRPRPELKPRP, the “shrunken log2 fold change” value was 0.0791. RRIRFRPPRLPRPRPRPEFEPRP was tested, and the “shrunken log2 fold change” value was 0.122. In the case of RRIRGRPPRLPRPRPRPAVKPRP, the “shrunken log2 fold change” value is reported as 0.0152. RRIRWRPPRLPRPRPRPCQCPRP was tested, and the “shrunken log2 fold change” value was -0.000687. In the case of RRIRPRPPRLPRPRPRPEFTPRP, the “shrunken log2 fold change” value is reported as 0.26. With RRIRKRPPRLPRPRPRPWPQPRP the “shrunken log2 fold change” value was 0.0865. RRIRKRPPRLPRPRPRPLRRPRP was tested, and the “shrunken log2 fold change” value was 0.689. With RRIRPRPPRLPRPRPRPLACPRP the “shrunken log2 fold change” value was 0.265. In the case of RRIRFRPPRLPRPRPRPVVKPRP, the “shrunken log2 fold change” value is reported as -0.461. RRIRRRPPRLPRPRPRPVGWPRP was tested, and the “shrunken log2 fold change” value was 0.666. For RRIRARPPRLPRPRPRPCLCPRP, the “shrunken log2 fold change” value was -0.495. In the case of RRIRTRPPRLPRPRPRPIYPPRP, the “shrunken log2 fold change” value is reported as -0.243. For RRIRQRPPRLPRPRPRPMHKPRP, the “shrunken log2 fold change” value was 0.0742. With RRIRKRPPRLPRPRPRPKWLPRP the “shrunken log2 fold change” value was -0.0433. RRIRARPPRLPRPRPRPYWLPRP was tested, and the “shrunken log2 fold change” value was -0.148. In the case of RRIRHRPPRLPRPRPRPRNNPRP, the “shrunken log2 fold change” value is reported as -0.493. In the case of RRIRRRPPRLPRPRPRPHLEPRP, the “shrunken log2 fold change” value is reported as 0.0779. With RRIRNRPPRLPRPRPRPRCTPRP the “shrunken log2 fold change” value was -0.263. RRIRHRPPRLPRPRPRPMRIPRP was tested, and the “shrunken log2 fold change” value was -0.00172. For RRIRVRPPRLPRPRPRPYKKPRP, the “shrunken log2 fold change” value was 0.0251. RRIRFRPPRLPRPRPRPHLRPRP was tested, and the “shrunken log2 fold change” value was -0.19. With RRIRFRPPRLPRPRPRPVGAPRP the “shrunken log2 fold change” value was 0.472. For RRIRYRPPRLPRPRPRPSSVPRP, the “shrunken log2 fold change” value was -0.425. In the case of RRIRLRPPRLPRPRPRPTRKPRP, the “shrunken log2 fold change” value is reported as 0.374. For RRIRQRPPRLPRPRPRPAPMPRP, the “shrunken log2 fold change” value was 0.538. With RRIRPRPPRLPRPRPRPLENPRP the “shrunken log2 fold change” value was -0.00388. For RRIRWRPPRLPRPRPRPCEFPRP, the “shrunken log2 fold change” value was -0.0211. With RRIRFRPPRLPRPRPRPFSVPRP the “shrunken log2 fold change” value was -1.57. With RRIRLRPPRLPRPRPRPLWLPRP the “shrunken log2 fold change” value was -0.0303. For RRIRWRPPRLPRPRPRPDATPRP, the “shrunken log2 fold change” value was 2.57. RRIRHRPPRLPRPRPRPVNFPRP was tested, and the “shrunken log2 fold change” value was -0.636. In the case of RRIRVRPPRLPRPRPRPMSDPRP, the “shrunken log2 fold change” value is reported as 0.032. With RRIRIRPPRLPRPRPRPYACPRP the “shrunken log2 fold change” value was -0.0484. RRIRWRPPRLPRPRPRPSQVPRP was tested, and the “shrunken log2 fold change” value was -0.0348. For RRIRLRPPRLPRPRPRPMLLPRP, the “shrunken log2 fold change” value was -0.56. For RRIRPRPPRLPRPRPRPTPFPRP, the “shrunken log2 fold change” value was 0.269. For RRIRRRPPRLPRPRPRPPYLPRP, the “shrunken log2 fold change” value was 0.0685. RRIRDRPPRLPRPRPRPCGSPRP was tested, and the “shrunken log2 fold change” value was 0.0136. RRIRLRPPRLPRPRPRPDRSPRP was tested, and the “shrunken log2 fold change” value was -0.0286. For RRIRLRPPRLPRPRPRPMSAPRP, the “shrunken log2 fold change” value was 0.344. With RRIRARPPRLPRPRPRPMGNPRP the “shrunken log2 fold change” value was -0.101. With RRIRPRPPRLPRPRPRPNNWPRP the “shrunken log2 fold change” value was -0.173. In the case of RRIRRRPPRLPRPRPRPVACPRP, the “shrunken log2 fold change” value is reported as 0.41. For RRIRNRPPRLPRPRPRPACIPRP, the “shrunken log2 fold change” value was 0.0248. In the case of RRIRHRPPRLPRPRPRPHADPRP, the “shrunken log2 fold change” value is reported as -0.208. In the case of RRIRSRPPRLPRPRPRPKCKPRP, the “shrunken log2 fold change” value is reported as -0.0132. RRIRWRPPRLPRPRPRPGERPRP was tested, and the “shrunken log2 fold change” value was 0.303. RRIRKRPPRLPRPRPRPAIPPRP was tested, and the “shrunken log2 fold change” value was 0.000942. For RRIRHRPPRLPRPRPRPFRQPRP, the “shrunken log2 fold change” value was 0.0583. With RRIRQRPPRLPRPRPRPVKHPRP the “shrunken log2 fold change” value was -0.629. RRIRERPPRLPRPRPRPPWRPRP was tested, and the “shrunken log2 fold change” value was 0.424. With RRIRSRPPRLPRPRPRPLLLPRP the “shrunken log2 fold change” value was -0.0475. RRIRRRPPRLPRPRPRPWYSPRP was tested, and the “shrunken log2 fold change” value was -0.0705. RRIRYRPPRLPRPRPRPAGNPRP was tested, and the “shrunken log2 fold change” value was -0.601. In the case of RRIRHRPPRLPRPRPRPDMGPRP, the “shrunken log2 fold change” value is reported as 0.00739. In the case of RRIRYRPPRLPRPRPRPYWMPRP, the “shrunken log2 fold change” value is reported as -0.686. With RRIRGRPPRLPRPRPRPGSAPRP the “shrunken log2 fold change” value was 0.972. RRIRPRPPRLPRPRPRPGRGPRP was tested, and the “shrunken log2 fold change” value was 0.611. For RRIRNRPPRLPRPRPRPFCMPRP, the “shrunken log2 fold change” value was -0.45. In the case of RRIRIRPPRLPRPRPRPSSSPRP, the “shrunken log2 fold change” value is reported as 0.148. In the case of RRIRQRPPRLPRPRPRPYWRPRP, the “shrunken log2 fold change” value is reported as 0.0113. For RRIRYRPPRLPRPRPRPYDPPRP, the “shrunken log2 fold change” value was -0.325. With RRIRSRPPRLPRPRPRPAVFPRP the “shrunken log2 fold change” value was 0.114. For RRIRARPPRLPRPRPRPCTLPRP, the “shrunken log2 fold change” value was 0.151. With RRIRVRPPRLPRPRPRPMRVPRP the “shrunken log2 fold change” value was 0.0609. For RRIRHRPPRLPRPRPRPQQRPRP, the “shrunken log2 fold change” value was 0.403. In the case of RRIRSRPPRLPRPRPRPCYEPRP, the “shrunken log2 fold change” value is reported as -0.167. With RRIRSRPPRLPRPRPRPRFTPRP the “shrunken log2 fold change” value was -0.115. For RRIRRRPPRLPRPRPRPNYCPRP, the “shrunken log2 fold change” value was -0.25. With RRIRPRPPRLPRPRPRPEHVPRP the “shrunken log2 fold change” value was 0.0556. For RRIRFRPPRLPRPRPRPKCNPRP, the “shrunken log2 fold change” value was -0.238. RRIRVRPPRLPRPRPRPFHPPRP was tested, and the “shrunken log2 fold change” value was -0.309. In the case of RRIRQRPPRLPRPRPRPNTGPRP, the “shrunken log2 fold change” value is reported as -0.766. RRIRYRPPRLPRPRPRPPAWPRP was tested, and the “shrunken log2 fold change” value was -0.0773. In the case of RRIRLRPPRLPRPRPRPQWTPRP, the “shrunken log2 fold change” value is reported as 0.107. In the case of RRIRNRPPRLPRPRPRPGCHPRP, the “shrunken log2 fold change” value is reported as -0.318. In the case of RRIRCRPPRLPRPRPRPQHLPRP, the “shrunken log2 fold change” value is reported as -0.0397. In the case of RRIRARPPRLPRPRPRPCLTPRP, the “shrunken log2 fold change” value is reported as 0.158. For RRIRRRPPRLPRPRPRPSHGPRP, the “shrunken log2 fold change” value was 0.145. For RRIRRRPPRLPRPRPRPHVQPRP, the “shrunken log2 fold change” value was -0.143. RRIRHRPPRLPRPRPRPDCDPRP was tested, and the “shrunken log2 fold change” value was -0.243. In the case of RRIRHRPPRLPRPRPRPLQHPRP, the “shrunken log2 fold change” value is reported as 0.0675. In the case of RRIRARPPRLPRPRPRPPHGPRP, the “shrunken log2 fold change” value is reported as 0.788. With RRIRDRPPRLPRPRPRPTEMPRP the “shrunken log2 fold change” value was 0.367. RRIRCRPPRLPRPRPRPWMHPRP was tested, and the “shrunken log2 fold change” value was -0.621. In the case of RRIRPRPPRLPRPRPRPTHDPRP, the “shrunken log2 fold change” value is reported as 0.258. In the case of RRIRRRPPRLPRPRPRPSSMPRP, the “shrunken log2 fold change” value is reported as -0.143. For RRIRTRPPRLPRPRPRPAQKPRP, the “shrunken log2 fold change” value was -0.00259. RRIRARPPRLPRPRPRPNLRPRP was tested, and the “shrunken log2 fold change” value was 0.022. With RRIRFRPPRLPRPRPRPAMRPRP the “shrunken log2 fold change” value was 0.307. For RRIRIRPPRLPRPRPRPWKRPRP, the “shrunken log2 fold change” value was -0.0143. In the case of RRIRIRPPRLPRPRPRPFEMPRP, the “shrunken log2 fold change” value is reported as -0.22. With RRIRPRPPRLPRPRPRPRRHPRP the “shrunken log2 fold change” value was 0.241. RRIRQRPPRLPRPRPRPCMGPRP was tested, and the “shrunken log2 fold change” value was -0.124. For RRIRLRPPRLPRPRPRPPWWPRP, the “shrunken log2 fold change” value was 0.695. For RRIRIRPPRLPRPRPRPIMKPRP, the “shrunken log2 fold change” value was -0.227. In the case of RRIRIRPPRLPRPRPRPREAPRP, the “shrunken log2 fold change” value is reported as 0.0165. RRIRARPPRLPRPRPRPIDHPRP was tested, and the “shrunken log2 fold change” value was -0.00706. In the case of RRIRFRPPRLPRPRPRPMPEPRP, the “shrunken log2 fold change” value is reported as -0.0117. RRIRKRPPRLPRPRPRPCFSPRP was tested, and the “shrunken log2 fold change” value was -0.51. For RRIRWRPPRLPRPRPRPTSVPRP, the “shrunken log2 fold change” value was 0.233. For RRIRFRPPRLPRPRPRPRGDPRP, the “shrunken log2 fold change” value was 0.477. In the case of RRIRKRPPRLPRPRPRPVKDPRP, the “shrunken log2 fold change” value is reported as 0.0491. With RRIRSRPPRLPRPRPRPVLTPRP the “shrunken log2 fold change” value was -0.0627. With RRIRPRPPRLPRPRPRPECQPRP the “shrunken log2 fold change” value was 0.126. With RRIRCRPPRLPRPRPRPGESPRP the “shrunken log2 fold change” value was 0.107. For RRIRMRPPRLPRPRPRPANIPRP, the “shrunken log2 fold change” value was -0.0889. For RRIRCRPPRLPRPRPRPQEPPRP, the “shrunken log2 fold change” value was 0.359. With RRIRNRPPRLPRPRPRPMMLPRP the “shrunken log2 fold change” value was -0.0295. In the case of RRIRRRPPRLPRPRPRPKTQPRP, the “shrunken log2 fold change” value is reported as 0.273. RRIRPRPPRLPRPRPRPGPCPRP was tested, and the “shrunken log2 fold change” value was 0.363. For RRIRVRPPRLPRPRPRPIEMPRP, the “shrunken log2 fold change” value was -0.267. In the case of RRIRERPPRLPRPRPRPKWWPRP, the “shrunken log2 fold change” value is reported as 0.397. In the case of RRIRNRPPRLPRPRPRPHVWPRP, the “shrunken log2 fold change” value is reported as 0.0415. In the case of RRIRARPPRLPRPRPRPMPDPRP, the “shrunken log2 fold change” value is reported as 0.74. RRIRCRPPRLPRPRPRPAVCPRP was tested, and the “shrunken log2 fold change” value was 0.297. With RRIRTRPPRLPRPRPRPCWAPRP the “shrunken log2 fold change” value was -0.0904. For RRIRKRPPRLPRPRPRPQDHPRP, the “shrunken log2 fold change” value was 0.103. In the case of RRIRSRPPRLPRPRPRPGCRPRP, the “shrunken log2 fold change” value is reported as 0.293. In the case of RRIRERPPRLPRPRPRPDRPPRP, the “shrunken log2 fold change” value is reported as -0.165. RRIRARPPRLPRPRPRPSVDPRP was tested, and the “shrunken log2 fold change” value was 0.125. RRIRFRPPRLPRPRPRPKDVPRP was tested, and the “shrunken log2 fold change” value was -0.00433. With RRIRARPPRLPRPRPRPPFPPRP the “shrunken log2 fold change” value was 0.625.
